Reference: paper PMC12025923 (Cells, 2025)
Primed or numbered codes have the meaning given here. Where no end group is shown, it is not given here. [ ]: non-standard residue; d: D form. FITC′ = fluorescein isothiocyanate label at the N-terminus; pS = N[C@@H](COP(=O)(O)O)C(=O)O

T1: 14-3-3γ-R57G-nLuc (human, UniProt P61981 2-247, R57G)
T1 construct: 14-3-3γ (YWHAG), human, pathogenic patient variant R57G, site-directed mutant of the 14-3-3γ-nLuc plasmid; limits as m8; As m8 with R57G; source: E. coli Rosetta(DE3)pLysS, purified (Ni-NTA); not shown: nLuc (nanoluciferase), C-terminal, kept
T1 sequence (looked up): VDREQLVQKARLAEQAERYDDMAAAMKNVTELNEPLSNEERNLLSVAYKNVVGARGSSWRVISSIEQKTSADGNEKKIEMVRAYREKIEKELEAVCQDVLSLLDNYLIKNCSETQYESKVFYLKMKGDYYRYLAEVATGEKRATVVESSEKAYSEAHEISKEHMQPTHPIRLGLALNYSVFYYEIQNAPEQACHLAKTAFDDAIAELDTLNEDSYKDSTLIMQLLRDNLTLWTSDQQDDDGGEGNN

T2: wild-type 14-3-3γ-nLuc (His6-14-3-3γ-nLuc) (human, UniProt P61981 2-247)
T2 construct: Size ~47.5 kDa as printed; The Nluc forward primer encodes a short linker (GGGGTRS, read from the primer) between 14-3-3γ and nLuc; also called wt 14-3-3γ-nLuc; 14-3-3γ-nLuc wt; source: E. coli Rosetta(DE3)pLysS, purified (Ni-NTA); not shown: nLuc (nanoluciferase), C-terminal, kept
T2 sequence (looked up): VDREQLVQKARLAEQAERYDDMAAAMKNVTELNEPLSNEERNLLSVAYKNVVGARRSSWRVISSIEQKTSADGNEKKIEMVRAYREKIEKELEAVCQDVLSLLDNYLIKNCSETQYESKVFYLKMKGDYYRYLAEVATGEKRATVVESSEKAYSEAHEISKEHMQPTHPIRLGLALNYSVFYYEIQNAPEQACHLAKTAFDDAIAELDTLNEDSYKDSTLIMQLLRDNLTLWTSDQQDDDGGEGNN

T3: 14-3-3γ-R57C-nLuc (human, UniProt P61981 2-247, R57C)
T3 construct: 14-3-3γ (YWHAG), human, pathogenic patient variant R57C, site-directed mutant of the 14-3-3γ-nLuc plasmid; limits as m8; As m8 with R57C; source: E. coli Rosetta(DE3)pLysS, purified (Ni-NTA); not shown: nLuc (nanoluciferase), C-terminal, kept
T3 sequence (looked up): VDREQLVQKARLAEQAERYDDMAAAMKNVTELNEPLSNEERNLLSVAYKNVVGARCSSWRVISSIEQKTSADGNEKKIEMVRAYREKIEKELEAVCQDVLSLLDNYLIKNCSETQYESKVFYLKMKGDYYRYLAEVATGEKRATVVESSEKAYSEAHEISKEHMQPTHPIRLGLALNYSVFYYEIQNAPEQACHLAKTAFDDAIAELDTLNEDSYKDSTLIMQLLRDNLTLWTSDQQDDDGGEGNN

T4: wild-type 14-3-3γ-nLuc (His6-14-3-3γ-nLuc) (human, UniProt P61981 2-247)
T4 chain: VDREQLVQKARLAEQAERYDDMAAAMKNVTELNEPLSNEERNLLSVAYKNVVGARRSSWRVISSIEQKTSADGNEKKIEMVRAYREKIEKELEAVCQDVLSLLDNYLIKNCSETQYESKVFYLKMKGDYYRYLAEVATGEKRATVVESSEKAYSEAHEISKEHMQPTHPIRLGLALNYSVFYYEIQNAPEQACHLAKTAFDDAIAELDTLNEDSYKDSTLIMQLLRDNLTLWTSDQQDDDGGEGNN

T5: 14-3-3γ-R57C-nLuc (human, UniProt P61981 2-247, R57C)
T5 sequence: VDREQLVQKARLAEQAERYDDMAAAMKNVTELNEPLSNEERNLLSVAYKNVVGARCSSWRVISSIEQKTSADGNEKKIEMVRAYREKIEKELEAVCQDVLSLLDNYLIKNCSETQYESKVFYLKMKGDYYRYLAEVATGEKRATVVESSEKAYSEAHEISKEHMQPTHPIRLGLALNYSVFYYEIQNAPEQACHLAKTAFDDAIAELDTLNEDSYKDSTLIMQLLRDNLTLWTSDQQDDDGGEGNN


Assays:
14-3-3γ-R57G-nLuc = biological target: T1, 14-3-3γ-R57G-nLuc; test: FRET or BRET; in vitro BRET: 1 nM recombinant nLuc or 14-3-3γ-nLuc with increasing FITC-phosphopeptide in 20 mM Tris-HCl, 150 mM NaCl, 1 mg/mL BSA, 0.1% Tween 20; 250 nM furimazine; net BRET after subtraction of nLuc background; Kd from y = Bmax*x/(Kd + x); conditions: both partners purified
[1] = biological target: T2, wild-type 14-3-3γ-nLuc …; test: as above; conditions: both partners purified
14-3-3γ-R57C-nLuc [2] = biological target: T3, 14-3-3γ-R57C-nLuc; test: as above; conditions: both partners purified
[3] = biological target: T4, wild-type 14-3-3γ-nLuc …; test: nafamostat 25 uM
14-3-3γ-R57C-nLuc [4] = biological target: T5, 14-3-3γ-R57C-nLuc; test: DMSO; apparent, Bmax set to wild-type
14-3-3γ-R57C-nLuc [5] = biological target: T5, 14-3-3γ-R57C-nLuc; test: nafamostat 25 uM; apparent, Bmax set to wild-type
[6] = biological target: T4, wild-type 14-3-3γ-nLuc …; test: degarelix 1 uM
14-3-3γ-R57C-nLuc [7] = biological target: T5, 14-3-3γ-R57C-nLuc; test: degarelix 1 uM; apparent, Bmax set to wild-type
[8] = biological target: T2, wild-type 14-3-3γ-nLuc …; test: FRET or BRET; in vitro BRET competition: wt 14-3-3γ-nLuc and FITC-phosphopeptide with increasing doses of R18 peptide (Figure S2D); conditions: both partners purified

Binder	percent of the phosphopeptide binding reached at the highest peptide concentration (14-3-3γ-R57G-nLuc) [%]	Kd [1] [nM]	percent of the phosphopeptide binding reached at the highest peptide concentration (14-3-3γ-R57C-nLuc [2]) [%]	Kd [3] [nM]	Kd (14-3-3γ-R57C-nLuc [4]) [nM]	Kd (14-3-3γ-R57C-nLuc [5]) [nM]	Kd [6] [nM]	Kd (14-3-3γ-R57C-nLuc [7]) [nM]	binding result [8]
{FITC′}-QRHSN[pS]LGPIFDGSGGGSGIKARAS[pS]SPVILVGTHLD (leucine-rich repeat kinase 2 (LRRK2), human; also called FITC-LRRK2; source: synthetic peptide (AbClonal)) [FITC-ppLRRK2]	~30	0.74	~30	0.8	431	44.1	0.89	25.2	–
{FITC′}-MPTPDATTPQAKGFRRAV[pS]ELDAKQAEAIMSPRFIGRRQSLIE (also called phosphopeptide derived from tyrosine hydroxylase (TH); source: synthetic peptide (AbClonal)) [FITC-pTH]	–	84.3	–	75	–	5280	36.2	22200	–
{FITC′}-FPQSA[pS]LPPYFS (SLP76 (Lymphocyte cytosolic protein 2/LCP2), human; source: synthetic peptide (AbClonal)) [FITC-pSLP76]	~30	47.5	~30	–	–	–	–	–	–
PHCVPRDLSWLDLEANMCLP (Not labelled with FITC (only the phosphopeptides were); source: synthetic peptide (AbClonal)) [R18 peptide]	–	–	–	–	–	–	–	–	binds
